Experimental data from the supplement of paper PMC12636428.

system: Saccharomyces cerevisiae; assay: transcriptional activation domain activity (GFP:mCherry ratio, weighted mean of sorted bins, harmonized to initial dataset scale) (arbitrary fluorescence ratio units); higher = stronger transcriptional activation; settings: beta-estradiol 1 µM; induction time 4 h
How it was run: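 The activation activity of each tile is the read-weighted mean of bin median fluorescence, averaged across its barcodes and mapped linearly onto the scale of the initial dataset. Tiles were fused to an estradiol-inducible synthetic transcription factor, barcoded, and integrated at URA3 in yeast diploids carrying a GFP reporter. Induction used 1 uM beta-estradiol in SC for 4 hours at 30 °C, after which cells were sorted into 8 GFP:mCherry bins, and any tile with fewer than 50 reads was dropped.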

Row | Sequence | transcriptional activation domain activity
1 | YCGDDMHSLRIVVAVLALLTTLKSIHAFAIVWVQSIVHFGDLQGAILLNYTAW | 76900
2 | YTRQLALGCVTRLLWTYLFRCTESTVIAFKKLDGIIKTLFPPFRRTIYPSETP | 61400
3 | FGWHIYKKIGADLAMRGKRSLSPLISSSPRLADRYKMYQIFMMLLKLDFFFFL | 77900
4 | ASEPVKEETKPPVEEHASEPVEEETKPVEEEIKPVEEHASEPVKEETKPAEEH | < 6570
5 | QAATGVGILLLLHDFKRVSIVILAQDGCDDEGWPNQLVAFAALLRSRLLKGGE | 22100
6 | FFSFPSFLLLPPPLSSLPFPSPFLSLLLSLLAFPAAFFPLFSLSSLLNIFPTT | 58500
7 | SIDSAAHHDNSTIPLDFMPRDALHGFDWSEEDDMSDGLPFLKTDPNNNGFFGD | 69800
8 | LSSSPSSQSASSTSTVLVVGTDDKKVKEAGDELKSKLGVKGGGKGPRWSGKFT | 23800
9 | PGEVSEAEANGDAPKAEAAVAPDSDEAAKPKKKKKARKPKAAKKGEDGEPAAA | 17100
10 | IFFVLPVFFFFHPPPFVFLPPSSFLPFLLLLLLLPLVLFISPPFSPSVAFYFT | 54100
11 | FISKLCILGGSQICNHFWGGIEIILESFYFILTTLINFWDFINLPNAFLWGLF | 72800
12 | GGKKKKAAAAVLETETEGEGEKENKSAEKGKAGSNGGGKKGKGKKGANGVANG | 23400
13 | CILVYLCHVSYLILLPRFDYVYNIIFNMVIGLTHNALWLLYSLPTSISLFRRF | 53500
14 | MWSLCILLVGLLIWYIVFFSYPPPNRIYLFSPSLGVCLVSFFFFLWGLFGGVF | 53400
15 | ENNNYAVDLAKSNGMHIVGIQGSDIVDGRKTLVLGLVWQLMRLSIYKTLSSLT | 41900
16 | DPTKSVSAYWVPGGDYISPALQILMNEYLLSFCPTITLPQSLILVSKYFGFLL | 60700
17 | YQNLYFIQLLVSCWALIGMLHLSLNRFEHLHFMVYMRPSGSKYLVAISWCLFL | 66900
18 | REGEERERDGRRTSTGRRARGKGRRSRRKEGKRENRKERERKEGKEGPGQRRR | 26700
19 | MISSAKLTLFAFFRSMQMQSISLGRNLKAFILRCVLLWPRILRSFRKVWSWYF | 18200
20 | MFGIGFFSRVLPWLWLWLWLYFFFFFFLYIFCMHYEQFSLSLTYNKLPFSLAL | 65900
21 | MQYVANATPVTCDYDGFDGSGMLVIPNIAIYLSATSGLACIIKCFEILWWYMA | 65000
22 | ESNVEAGKAEAEKAVEEAAGAEGEGGEEKAVEEEVAEGAEGEAAEGEAAEGEA | 32600
23 | AKSLRLTIDEVKMLHRPVIWYLIVMLVDTLTATYLQYNGFLLHRTHLRETLSV | 44200
24 | MRIAIYWRSFSVSTSFFFLPGYSFFLSNWVLFLVYFYDTGCGVCFLPFIMIFF | 72700
25 | MRFLLTIIHFFLTLFLSYTLFLSVILLFSRLYYFLSIIRSSYAIIWIFFLFIL | 52000
26 | PPILVWMRYNAFFILYPLGAGSECLLTFFSLDEAHAWWPHYALLLKIILLIYI | 73800
27 | TPTAQYQQGYHFRHLRYVMCLSVAVLIVGAVSLTIPLPISARIASILRFWEHD | 44200
28 | MYHITVFSLPLNLYCARCFALTLTILMGKSFLMGFINVFNRICTLLVTTLFLI | 70100

Row | Sequence | transcriptional activation domain activity
29 | DLAPVQPVQKQARRRSGPACEGCKARKTKCDGKRPTCGSCVDKRHCVYADASV | 21900
30 | EVNYLYGLILLQFYTGFIHDIIFGSGHLPFLPLMITSIYCSLGVVYGWGYFML | 51000
31 | MRFLFFLLLFLFFFPPPLPPISSLQGCFFVIFFFGFFIFSSFLLFYAVFFFIV | 39000
32 | AKGAKKAKGAKKAKGAKKAAAGGAAAKAGAAAKAAKKAAKAKAAAAGGAAAAA | 26000
33 | MFLFVFSLVCIFYYCCYLLLLLLSSWLYSQQFVLFWSLTVHISCCPSFFLNES | 37400
34 | QENTLPATQANSSLLETYPIVQSNPVTTTIKESPNSIMAGWDNWESDMVWRDV | 90100
35 | MIWREFFLFFLFFFFLFGIYGLRVAGLDYFVYGDLFVIINISYLFFWWVYAIY | 45900
36 | VDTCRLSAPLVWWLTFGILCTMYLLVLEVILFGILVFMVLPFIMLLYSIMLLC | 49100
37 | YLMVLYYTSRPVLFLVCAGNELCFIFIYCLGWFSHWLLWLGLLISIPVCLFKQ | 71800
38 | EGLYKCRYGSYFIELSRYSFFFAMFLFFLRAGWYPFSAFWLGCFWHQLVFTAH | 40800
39 | LLTWMPTVAWPMYNRCFGSLIWIPIRYELIAIVILSIITFFFLFLAALISIQL | 43300
40 | DGNAGQTAGNAGNGRQNGNGRQGGNGGAGQQGKPRPNGQKGQQGQRGQGAGAG | 20500
41 | LFHSYFSFLLLFFFFFFFYFLPFFFFLPSLLPHFLLFSFYFPFISPFLSTSFS | 58800
42 | EETKAEEPKATEAATTSTAPAAATEATTAATAETTTEEAKPATNGSTAAADAA | 23200
43 | MTSPPLIKEEQTSSDESQIQQQSKTRRPKTRASVACTSCRDRRIRCVVPSGKK | 55700
44 | DEDAEGEDDPESAEPAKKRGRPPGSGKKRKPAAEKPKPQPGRGRGRPKKSEAA | 18000
45 | DEVTDWFGASEDIGLEFVEPWTELIEQRYMQCGDGDNNNFENLYNLFVNSNNI | 137000
46 | FVHVYLRKRISGFPPGYRVAGELIIWCGAVVALSFESILATDASGSGYRLSDP | 58200
47 | VIGGGATGSGVAVDAASRGLKVALVERDDFSSGTSSKSTKLVHGGVRYLQKAV | 69700
48 | TVSDEAIEVCVAAQAREGEANKSVREVIAEALNVPKSDVEIAKGMKSREKTVA | 25700
49 | TRDDEEGGEEEEEEEEEEEEDEEDEDPESLPHIHKALEIHYQIHLSPTYSVPV | 52700
50 | TQATIVGDFFVCLMDVAGHDLAILLINWRAQTGTWLIFDSLEPLMWPHRITLV | 40300
51 | FRLVPFVLWPPFTRRQTDELYLFSWSFLALIWFFIWSLVQFPIVLTVLLSLVF | 52000
52 | HTRSLRYGKLRNGTLVRVPPTLIVRLKSHFHSLPCGVDLVLGLNGYIWVCMHI | 52700
53 | LSSSSSVQTSAATTVVLVSGSDDKLVKAAGDALRARLGVKGGGKGQKWSGKFT | 17600
54 | IELSRNFVNVPDFVCFFNLPDNLSVLYTLEIVYFGQLLLFHSIIYALVLIRFW | 47900
55 | MVVFLFSFRVWVLLWICKISFINFVPMSTCRGLMVVRLRLNQTWGIRSLVPWL | 29600
